Source: patent US20190153406A1 (PEKING UNIVERSITY, published 2019)
Residue numbers refer to the chain shown, from its start. Names may count otherwise. One block for each binder: values may come before it.

What was measured:
[1] = target: T1, rat insulin receptor substrate IRS1 (rat, UniProt P35570 1-1235, limits assumed); assay: SPR, purified IRS1 immobilized, purified MG53 in mobile phase
T1 construct: The legend says Rat IRS1; also called Rat IRS1
T1 sequence (looked up): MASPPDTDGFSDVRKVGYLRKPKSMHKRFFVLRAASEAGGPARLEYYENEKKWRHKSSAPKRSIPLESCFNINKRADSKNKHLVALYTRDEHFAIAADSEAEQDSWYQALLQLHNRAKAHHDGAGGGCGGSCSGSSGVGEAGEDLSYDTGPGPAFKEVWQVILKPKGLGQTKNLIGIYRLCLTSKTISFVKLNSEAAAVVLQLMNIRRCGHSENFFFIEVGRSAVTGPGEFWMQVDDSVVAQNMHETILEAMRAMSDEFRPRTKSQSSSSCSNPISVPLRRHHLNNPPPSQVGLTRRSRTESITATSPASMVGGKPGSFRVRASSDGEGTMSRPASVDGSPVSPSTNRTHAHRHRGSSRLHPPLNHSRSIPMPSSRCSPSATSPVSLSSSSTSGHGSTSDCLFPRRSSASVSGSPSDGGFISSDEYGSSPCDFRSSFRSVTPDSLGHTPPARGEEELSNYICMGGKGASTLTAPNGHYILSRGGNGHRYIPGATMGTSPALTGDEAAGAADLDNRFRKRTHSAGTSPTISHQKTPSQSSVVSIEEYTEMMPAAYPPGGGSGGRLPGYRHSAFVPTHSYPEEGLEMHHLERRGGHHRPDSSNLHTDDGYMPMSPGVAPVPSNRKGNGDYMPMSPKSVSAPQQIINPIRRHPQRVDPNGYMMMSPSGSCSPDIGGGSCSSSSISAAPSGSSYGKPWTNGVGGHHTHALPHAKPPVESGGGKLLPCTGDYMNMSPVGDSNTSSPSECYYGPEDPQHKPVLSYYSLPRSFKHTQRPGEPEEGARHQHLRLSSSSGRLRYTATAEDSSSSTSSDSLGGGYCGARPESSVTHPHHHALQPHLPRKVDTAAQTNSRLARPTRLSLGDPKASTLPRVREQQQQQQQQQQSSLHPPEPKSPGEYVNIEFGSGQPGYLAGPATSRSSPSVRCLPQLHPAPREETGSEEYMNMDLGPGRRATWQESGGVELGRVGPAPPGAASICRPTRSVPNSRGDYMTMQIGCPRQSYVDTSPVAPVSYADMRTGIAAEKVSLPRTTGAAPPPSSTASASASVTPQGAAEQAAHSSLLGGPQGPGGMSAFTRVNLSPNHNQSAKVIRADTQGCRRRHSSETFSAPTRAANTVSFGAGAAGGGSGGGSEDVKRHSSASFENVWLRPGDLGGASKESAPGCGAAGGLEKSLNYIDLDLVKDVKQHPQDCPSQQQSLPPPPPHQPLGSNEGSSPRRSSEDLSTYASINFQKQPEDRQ

[2] = target: T1, rat insulin receptor substrate IRS1; assay: SPR, Rat IRS1 immobilized (500 RU), MG53-S255A in the mobile phase [lower panel]

Kd [1]: 64.2 nM
B1: mouse wild-type MG53 (enzyme)
chain: MSAAPGLLRQELSCPLCLQLFDAPVTAECGHSFCRACLIRVAGEPAADGTVACPCCQAPTRPQALSTNLQLSRLVEGLAQVPQGHCEEHLDPLSIYCEQDRTLVCGVCASLGSHRGHRLLPAAEAQARLKTQLPQQKMQLQEACMRKEKTVAVLEHQLVEVEETVRQFRGAVGEQLGKMRMFLAALESSLDREAERVRGDAGVALRRELSSLNSYLEQLRQMEKVLEEVADKPQTEFLMKFCLVTSRLQKILSESPPPARLDIQLPVISDDFKFQVWKKMFRALMPALEELTFDPSSAHPSLVVSSSGRRVECSDQKAPPAGEDTRQFDKAVAVVAQQLLSQGEHYWEVEVGDKPRWALGVMAADASRRGRLHAVPSQGLWLLGLRDGKILEAHVEAKEPRALRTPERPPARIGLYLSFADGVLAFYDASNPDVLTPIFSFHERLPGPVYPIFDVCWHDKGKNAQPLLLVGPEQEQA
notes: Expressed from a plasmid in HEK293T cells for co-IP and degradation assays; purified protein in the mobile phase for SPR; also called TRIM72; Mitsugumin 53

binding result [2]: no binding (tested: 1000 nM)
B2: mouse MG53 S255A mutant (enzyme)
chain: B1 chain with S255A
